Data set [1] deals with T1, A. castellanii CYP51 (Acanthamoeba castellanii, UniProt L8GJB3, V2A).
T1 sequence (L8GJB3 1-486 V2A): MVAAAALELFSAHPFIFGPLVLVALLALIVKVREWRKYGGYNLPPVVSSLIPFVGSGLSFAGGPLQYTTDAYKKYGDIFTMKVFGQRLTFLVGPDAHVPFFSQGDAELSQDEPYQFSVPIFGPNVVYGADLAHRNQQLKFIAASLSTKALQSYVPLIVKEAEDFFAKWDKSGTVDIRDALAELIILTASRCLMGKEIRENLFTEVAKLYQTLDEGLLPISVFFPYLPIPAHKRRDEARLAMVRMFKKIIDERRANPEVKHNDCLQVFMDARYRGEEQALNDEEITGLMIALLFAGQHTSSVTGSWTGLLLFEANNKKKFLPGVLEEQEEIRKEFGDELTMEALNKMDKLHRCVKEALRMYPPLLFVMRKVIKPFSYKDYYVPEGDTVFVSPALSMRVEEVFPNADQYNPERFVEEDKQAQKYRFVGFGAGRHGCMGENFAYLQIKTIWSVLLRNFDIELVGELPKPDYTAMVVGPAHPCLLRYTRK
T1 sequence (P00388 2-678 partner): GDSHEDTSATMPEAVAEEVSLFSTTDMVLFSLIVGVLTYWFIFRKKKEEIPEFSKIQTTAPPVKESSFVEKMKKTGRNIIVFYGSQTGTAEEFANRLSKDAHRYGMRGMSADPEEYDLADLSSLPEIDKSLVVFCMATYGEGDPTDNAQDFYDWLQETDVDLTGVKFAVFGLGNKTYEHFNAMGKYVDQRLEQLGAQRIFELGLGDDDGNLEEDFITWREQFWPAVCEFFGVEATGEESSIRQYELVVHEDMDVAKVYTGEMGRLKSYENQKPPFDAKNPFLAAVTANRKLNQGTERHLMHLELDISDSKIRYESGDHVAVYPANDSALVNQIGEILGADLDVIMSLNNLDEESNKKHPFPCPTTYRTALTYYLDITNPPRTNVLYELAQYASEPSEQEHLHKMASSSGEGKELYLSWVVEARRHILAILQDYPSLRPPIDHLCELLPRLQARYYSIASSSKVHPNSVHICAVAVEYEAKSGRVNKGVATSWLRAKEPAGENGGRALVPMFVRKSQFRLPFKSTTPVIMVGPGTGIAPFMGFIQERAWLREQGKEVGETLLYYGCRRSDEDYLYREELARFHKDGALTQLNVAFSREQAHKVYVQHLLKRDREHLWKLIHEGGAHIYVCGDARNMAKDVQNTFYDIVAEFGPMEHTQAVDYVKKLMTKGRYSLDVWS
The experiment in a line: A. castellanii CYP51 inhibition assay, reconstituted 1 h enzyme reaction. The data set is classed as biochemical. Conditions: 1 h IC50, 1 h reaction, 0.5 μM P450, 50 μM obtusifoliol.

In data set [2] the test system is CC(C)=CCC[C@@H](C)[C@H]1CC[C@@]2(C)C3=C(CC[C@]12C)[C@@]1(C)CC[C@H](O)C(C)(C)[C@@H]1CC3. As to the kind of experiment: purified protein, by the assay type. Conditions: other: 37 °C, 1 min reactions obtusifoliol, 20 min lanosterol.
Data set [3] concerns C=C(CC[C@@H](C)[C@H]1CC[C@@]2(C)C3=C(CC[C@]12C)[C@@]1(C)CC[C@H](O)[C@@H](C)[C@@H]1CC3)C(C)C. As to the kind of experiment: purified protein, by the assay type. Conditions: other: 37 °C, 1 min reactions obtusifoliol, 20 min lanosterol.

The term IC50 denotes the concentration that inhibits the measured activity by half. In data set [1], `OC(Cn1cncn1)(Cn1cncn1)c1ccc(F)cc1F` [fluconazole] came in with an IC50 of 71 µM.
One may read the Km as the concentration of substrate that gives half-maximal velocity. As a reminder, the kcat is the number of substrate molecules converted per active site and unit of time at saturation. What is called kcat/Km is the turnover number divided by the Michaelis constant. As for “A. castellanii CYP51 (Acanthamoeba castellanii str. Neff; V2A)”, in data set [2], the Km is 52 ± 15 µM, the kcat came out at 0.102 s⁻¹ and the catalytic efficiency (kcat/Km) amounted to 0.12 µM⁻¹ min⁻¹. Further, in data set [3], the Km amounted to 2.7 ± 0.3 µM, the turnover number (kcat) is 0.513 s⁻¹ and the kcat/Km amounted to 11.4 µM⁻¹ min⁻¹.
